According to article PMC8692152, “Cellular Id1 inhibits hepatitis B virus transcription by interacting with the novel covalently closed circular DNA-binding protein E2F4” (International Journal of Biological Sciences, 2022):

Biological target: the molecule itself
Assay: SEC; Superdex 75, 50 mM Tris-HCl pH 8.0, 300 mM NaCl; calibrated with molecular mass standards

B1: E2F4_(1-88) (domain or fragment)
chain: not shown
notes: The section on ITC sample preparation describes an E2F4_(1-88) protein purified on a GST column and cut with 3C protease; also called pET28-E2F4_(1-88)
stoichiometry N: 2
